These results are taken from publication PMC7994000 (Biochimica et biophysica acta. Proteins and proteomics, 2020).

T1: Full-length human IKK2 (human, UniProt O14920 1-756)
T1 sequence (looked up): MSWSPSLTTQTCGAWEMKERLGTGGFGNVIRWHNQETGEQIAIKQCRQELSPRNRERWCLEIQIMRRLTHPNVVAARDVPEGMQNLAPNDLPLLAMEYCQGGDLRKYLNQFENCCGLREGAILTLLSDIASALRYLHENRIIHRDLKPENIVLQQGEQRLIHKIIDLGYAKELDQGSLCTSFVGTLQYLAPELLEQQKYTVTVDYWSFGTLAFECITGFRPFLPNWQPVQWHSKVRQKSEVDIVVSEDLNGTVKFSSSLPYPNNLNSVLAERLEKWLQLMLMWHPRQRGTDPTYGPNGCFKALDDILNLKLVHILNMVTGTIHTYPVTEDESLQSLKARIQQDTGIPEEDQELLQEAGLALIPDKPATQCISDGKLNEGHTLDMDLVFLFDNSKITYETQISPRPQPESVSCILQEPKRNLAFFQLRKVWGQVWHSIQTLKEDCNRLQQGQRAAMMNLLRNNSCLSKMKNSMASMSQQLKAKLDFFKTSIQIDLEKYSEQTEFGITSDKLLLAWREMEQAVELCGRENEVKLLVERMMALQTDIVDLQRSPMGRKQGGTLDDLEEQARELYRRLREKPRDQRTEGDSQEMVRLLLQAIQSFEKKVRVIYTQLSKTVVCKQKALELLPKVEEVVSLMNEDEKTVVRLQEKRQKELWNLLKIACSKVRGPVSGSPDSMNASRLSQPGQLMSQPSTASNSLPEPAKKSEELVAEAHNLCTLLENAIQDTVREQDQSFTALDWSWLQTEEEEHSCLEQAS

B1: NEMO^1–250 (domain or fragment, human, UniProt Q9Y6K9 1-250, looked up)
chain: MNRHLWKSQLCEMVQPSGGPAADQDVLGEESPLGKPAMLHLPSEQGAPETLQRCLEENQELRDAIRQSNQILRERCEELLHFQASQREEKEFLMCKFQEARKLVERLGLEKLDLKRQKEQALREVEHLKRCQQQMAEDKASVKAQVTSLLGELQESQSRLEAATKECQALEGRARAASEQARQLESEREALQQQHSVQVDQLRMQGQSVEAALRMERQAASEEKRKLAQLQVAYHQLFQEYDNHIKSSVV
B2: NEMO^1–210 (domain or fragment, human, UniProt Q9Y6K9 1-210, looked up)
chain: MNRHLWKSQLCEMVQPSGGPAADQDVLGEESPLGKPAMLHLPSEQGAPETLQRCLEENQELRDAIRQSNQILRERCEELLHFQASQREEKEFLMCKFQEARKLVERLGLEKLDLKRQKEQALREVEHLKRCQQQMAEDKASVKAQVTSLLGELQESQSRLEAATKECQALEGRARAASEQARQLESEREALQQQHSVQVDQLRMQGQSVE
B3: NEMO^1–280 (domain or fragment, human, UniProt Q9Y6K9 1-280, looked up)
chain: MNRHLWKSQLCEMVQPSGGPAADQDVLGEESPLGKPAMLHLPSEQGAPETLQRCLEENQELRDAIRQSNQILRERCEELLHFQASQREEKEFLMCKFQEARKLVERLGLEKLDLKRQKEQALREVEHLKRCQQQMAEDKASVKAQVTSLLGELQESQSRLEAATKECQALEGRARAASEQARQLESEREALQQQHSVQVDQLRMQGQSVEAALRMERQAASEEKRKLAQLQVAYHQLFQEYDNHIKSSVVGSERKRGMQLEDLKQQLQQAEEALVAKQEV
B4: NEMO^1–130 (domain or fragment, human, UniProt Q9Y6K9 1-130, looked up)
chain: MNRHLWKSQLCEMVQPSGGPAADQDVLGEESPLGKPAMLHLPSEQGAPETLQRCLEENQELRDAIRQSNQILRERCEELLHFQASQREEKEFLMCKFQEARKLVERLGLEKLDLKRQKEQALREVEHLKR
B5: NEMO^111–250 (domain or fragment, human, UniProt Q9Y6K9 111-250, looked up)
chain: KLDLKRQKEQALREVEHLKRCQQQMAEDKASVKAQVTSLLGELQESQSRLEAATKECQALEGRARAASEQARQLESEREALQQQHSVQVDQLRMQGQSVEAALRMERQAASEEKRKLAQLQVAYHQLFQEYDNHIKSSVV
B6: NEMO^1–110 (domain or fragment, human, UniProt Q9Y6K9 1-110, looked up)
chain: MNRHLWKSQLCEMVQPSGGPAADQDVLGEESPLGKPAMLHLPSEQGAPETLQRCLEENQELRDAIRQSNQILRERCEELLHFQASQREEKEFLMCKFQEARKLVERLGLE
B7: NEMO^250–365 (domain or fragment, human, UniProt Q9Y6K9 250-365, looked up)
chain: VGSERKRGMQLEDLKQQLQQAEEALVAKQEVIDKLKEEAEQHKIVMETVPVLKAQADIYKADFQAERQAREKLAEKKELLQEQLEQLQREYSKLKASCQESARIEDMRKRHVEVSQ

The term stoichiometry N denotes a count of units in the complex or per binding partner.

For one data set, the target named is T1, Full-length human IKK2. The data set can be described thus: SEC-MALS. (Size exclusion chromatography separates by hydrodynamic size, large species first.)
As for B1, the binding result is given as “binds”. Turning to B2, the binding result was “binds”. The same measure, in the same setting: in the case of B3 it was “binds”.

For the molecule B4, the binding result is listed as “binds”.

A further data set deals with the molecule itself. As to the kind of experiment: SEC-MALS.
B5: the “stoichiometry N” value is 2. Same read-out and setting: with B1 the figure was 2; with B6, 2. Regarding B2, the binding result is listed as “binds”. Still for that read-out and setting: with B3 the entry was “binds”.

On to B4, for which the “stoichiometry N” value was found to be 2. The same measure, in the same setting: with B7 the figure was 2.
